According to the supplement of paper PMC10567573:

B1: WEE1 (parent)
chain: FISRTSIPNAASEEGDEDDWASNK

Variants of: B1
Test: protein stability index of a GFP-peptide fusion (GPS, HEK-293T) (PSI 1-6); higher = more stable
Conditions: c terminus: a fixed tail appended
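Further: lentivirally expressed fusions sorted by FACS into six bins by GFP to DsRed ratio, PSI derived from sequencing read proportions per bin multiplied by bin number.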

In order of rising protein stability index:
1. FISRTSIPNAASEEGDEDDWASVK  2.71
2. FISRTSIPNAASEEGDEDDWAWNK  2.71
3. FISRTSIPNAASEEGDEDDWAGNK  2.83
4. FISRTSIPNAASEEGDEDDWASNW  2.94
5. FISRTSIPNAASEEGDEDDWASNR  3.08
6. FISRTSIPNAASEEGDEDDWAPNK  3.14
7. FISRTSIPNAASEEGDEDDWASLK  3.45
8. FISRTSIPNAASEEGDEDDWALNK  3.52
9. FISRTSIPNAASEEGDEDDWASMK  3.57
10. FISRTSIPNAASEEGDEDDWASNV  3.58
11. FISRTSIPNAASEEGDEDDWASYK  3.64
12. FISRTSIPNAASEEGDEDDWASWK  3.65
13. FISRTSIPNAASEEGDEDDWASPK  3.67
14. FISRTSIPNAASEEGDEDDWASCK  3.73
15. FISRTSIPNAASEEGDEDDWASHK  3.76
16. FISRTSIPNAASEEGDEDDWASIK  3.79
17. FISRTSIPNAASEEGDEDDWASQK  3.82
18. FISRTSIPNAASEEGDEDDWASNM  3.82
19. FISRTSIPNAASEEGDEDDWACNK  3.87
20. FISRTSIPNAASEEGDEDDWAMNK  3.88
21. FISRTSIPNAASEEGDEDDWYSNK  3.9
22. FISRTSIPNAASEEGDEDDWAQNK  3.9
23. FISRTSIPNAASEEGDEDDWASNH  3.91
24. FISRTSIPNAASEEGDEDDWASDK  3.92
25. FISRTSIPNAASEEGDEDDWAHNK  3.92
26. FISRTSIPNAASEEGDEDDWASKK  3.93
27. FISRTSIPNAASEEGDEDDWASFK  3.94
28. FISRTSIPNAASEEGDEDDWASAK  3.94
29. FISRTSIPNAASEEGDEDDWASNY  3.94
30. FISRTSIPNAASEEGDEDDWAVNK  3.96
31. FISRTSIPNAASEEGDEDDWAFNK  3.96
32. FISRTSIPNAASEEGDEDDWARNK  3.99
33. FISRTSIPNAASEEGDEDDWASNG  4.01
34. FISRTSIPNAASEEGDEDDWASNL  4.04
35. FISRTSIPNAASEEGDEDDWASNF  4.04
36. FISRTSIPNAASEEGDEDDWAYNK  4.08
37. FISRTSIPNAASEEGDEDDWANNK  4.11
38. FISRTSIPNAASEEGDEDDWASNI  4.12
39. FISRTSIPNAASEEGDEDDWASNT  4.12
40. FISRTSIPNAASEEGDEDDWAANK  4.15
41. FISRTSIPNAASEEGDEDDWASNC  4.15
42. FISRTSIPNAASEEGDEDDWASSK  4.16
43. FISRTSIPNAASEEGDEDDWAENK  4.18
44. FISRTSIPNAASEEGDEDDWASNA  4.19
45. FISRTSIPNAASEEGDEDDWASRK  4.21
46. FISRTSIPNAASEEGDEDDWASTK  4.22
47. FISRTSIPNAASEEGDEDDWASEK  4.22
48. FISRTSIPNAASEEGDEDDWATNK  4.23
49. FISRTSIPNAASEEGDEDDWASNN  4.23
50. FISRTSIPNAASEEGDEDDWAINK  4.24
51. FISRTSIPNAASEEGDEDDWASGK  4.33
52. FISRTSIPNAASEEGDEDDWAKNK  4.38
53. FISRTSIPNAASEEGDEDDWASNQ  4.46
54. FISRTSIPNAASEEGDEDDWADNK  4.51
55. FISRTSIPNAASEEGDEDDWASNS  4.53
56. FISRTSIPNAASEEGDEDDWASNP  4.54
57. FISRTSIPNAASEEGDEDDWASNE  4.69
58. FISRTSIPNAASEEGDEDDWASND  4.73
